Assays:
SEC = target: the molecule itself; test: SEC
PanZ(N45A)-His = target: T1, PanZ(N45A)-His (E. coli, UniProt P37613 1-127, N45A); test: SEC
T1 sequence: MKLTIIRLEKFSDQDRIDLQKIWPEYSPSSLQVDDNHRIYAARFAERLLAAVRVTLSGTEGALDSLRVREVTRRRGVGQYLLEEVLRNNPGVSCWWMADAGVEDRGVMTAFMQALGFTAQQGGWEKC

binding result (PanZ(N45A)-His): binds
B1: PanD, unactivated proenzyme (native, untagged) (enzyme, E. coli, UniProt P0A790 1-126, looked up)
chain: MIRTMLQGKLHRVKVTHADLHYEGSCAIDQDFLDAAGILENEAIDIWNVTNGKRFSTYAIAAERGSRIISVNGAAAHCASVGDIVIIASFVTMPDEEARTWRPNVAYFEGDNEMKRTAKAIPVQVA
stoichiometry N (SEC): 4

Reference: paper PMC3496974 (MicrobiologyOpen, 2012)
